{"source": "patent US20150111836A1", "about": "“CELLULAR APOBEC3 PROTEINS AND MODULATORS THEREOF FOR REGULATING DNA REPAIR PROCESSES AND TREATING PROLIFERATIVE DISEASES” (priority 2012, published 2015)", "key": {"[1]": {"biological_target": "T1, purified recombinant A3G-His6 (human APOBEC3G with C-terminal Myc-His6 tag, expressed in 293T cells) (human), Q9HC16", "T1 sequence (Q9HC16 whole entry)": "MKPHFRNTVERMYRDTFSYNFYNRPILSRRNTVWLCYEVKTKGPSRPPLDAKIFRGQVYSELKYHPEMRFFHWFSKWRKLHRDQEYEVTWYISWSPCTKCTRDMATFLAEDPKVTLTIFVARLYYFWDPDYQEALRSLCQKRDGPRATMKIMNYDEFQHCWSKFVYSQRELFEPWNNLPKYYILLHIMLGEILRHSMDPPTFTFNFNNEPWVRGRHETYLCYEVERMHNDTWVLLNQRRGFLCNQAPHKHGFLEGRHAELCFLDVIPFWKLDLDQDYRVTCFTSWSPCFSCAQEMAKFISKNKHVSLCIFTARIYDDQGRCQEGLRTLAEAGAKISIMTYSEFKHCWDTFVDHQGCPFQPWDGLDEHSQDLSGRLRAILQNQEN"}, "[2]": {"biological_target": "T1, purified recombinant A3G-His6 (human …)", "experiment": "cell-based or functional assay"}}}
{"binder": "QLIHLYYFDCFSESA (modifications not checked)", "note": "[Vif105-119 peptide]", "values": [{"measurement": "K'I", "setting": "[1]", "result": 92, "unit": "nM"}, {"measurement": "Ki", "setting": "[1]", "result": 68, "unit": "nM"}, {"measurement": "IC50 of inhibition of A3G deaminase activity", "setting": "[2]", "result": 100, "unit": "nM"}, {"measurement": "inhibition of A3G deaminase activity", "setting": "[2]", "result": 1, "unit": "µM"}]}
{"binder": "VKHHMYISGKAKGWF (modifications not checked)", "note": "[Vif25-39 peptide]", "values": [{"measurement": "K'I", "setting": "[1]", "result": 250, "unit": "nM"}, {"measurement": "IC50 of inhibition of A3G deaminase activity", "setting": "[2]", "result": 600, "unit": "nM"}, {"measurement": "IC50 of inhibition of deaminase activity of purified A3G (experimental repeat)", "setting": "[2]", "result": 1000, "unit": "nM"}, {"measurement": "inhibition of A3G deaminase activity", "setting": "[2]", "result": 1, "unit": "µM"}]}
